Assay results taken from patent US20190127444A1 (NEW YORK UNIVERSITY, published 2019).

Key:
[1] = biological target: T1, LukAB toxoid variant (LukA E323A), recombinant polyhistidine-tagged (S. aureus, UniProt Q2FFA2 28-351; P21224 30-338); experiment: ELISA and neutralisation assay
T1 sequence 1: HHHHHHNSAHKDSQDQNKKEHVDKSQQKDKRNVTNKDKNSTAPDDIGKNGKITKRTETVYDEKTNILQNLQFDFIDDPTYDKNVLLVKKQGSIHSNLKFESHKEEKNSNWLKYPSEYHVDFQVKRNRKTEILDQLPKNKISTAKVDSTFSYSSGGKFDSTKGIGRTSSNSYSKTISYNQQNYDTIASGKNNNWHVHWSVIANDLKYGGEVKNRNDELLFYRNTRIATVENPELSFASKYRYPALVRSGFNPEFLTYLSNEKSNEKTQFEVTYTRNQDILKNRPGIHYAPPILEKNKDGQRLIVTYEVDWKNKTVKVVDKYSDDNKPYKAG
T1 sequence 2: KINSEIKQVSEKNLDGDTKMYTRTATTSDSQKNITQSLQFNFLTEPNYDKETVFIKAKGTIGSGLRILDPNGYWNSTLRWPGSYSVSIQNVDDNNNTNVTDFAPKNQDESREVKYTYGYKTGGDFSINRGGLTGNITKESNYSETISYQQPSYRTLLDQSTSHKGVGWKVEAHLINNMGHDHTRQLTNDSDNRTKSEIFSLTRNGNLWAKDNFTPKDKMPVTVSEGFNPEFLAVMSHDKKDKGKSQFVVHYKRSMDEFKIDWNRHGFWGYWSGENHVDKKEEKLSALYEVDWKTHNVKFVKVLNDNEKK

[2] = biological target: T2, Human serum albumin conjugated with biotin (Rockland 009-0633) (human, UniProt P02768 25-609); experiment: ELISA, biotinylated HSA on streptavidin plate
T2 construct: also called HSA

[3] = biological target: T3, LukE, recombinant parental form with amino-terminal poly-histidine and streptavidin binding sequences (S. aureus); experiment: BLI, biotinylated LukE on streptavidin pins, Luk26 FN3 at 10 ug/mL
T3 chain: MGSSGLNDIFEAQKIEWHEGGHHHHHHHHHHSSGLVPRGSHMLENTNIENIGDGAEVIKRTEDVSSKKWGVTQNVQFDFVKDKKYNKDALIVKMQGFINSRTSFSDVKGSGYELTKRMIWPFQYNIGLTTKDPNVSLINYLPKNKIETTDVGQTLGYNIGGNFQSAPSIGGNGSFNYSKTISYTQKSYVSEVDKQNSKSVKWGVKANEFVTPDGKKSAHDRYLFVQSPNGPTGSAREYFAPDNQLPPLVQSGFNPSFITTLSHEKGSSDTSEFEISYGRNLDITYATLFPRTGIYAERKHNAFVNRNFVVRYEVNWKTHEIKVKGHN

[4] = biological target: T1, LukAB toxoid variant (LukA E323A), …; experiment: SPR (Biacore T200)
[5] = biological target: T1, LukAB toxoid variant (LukA E323A), …; experiment: SPR (Biacore T200), single cycle kinetics, 1:1 model
[6] = biological target: T1, LukAB toxoid variant (LukA E323A), …; experiment: SPR (Biacore T200), construct captured via anti-human Fc, LukAB as analyte
[7] = biological target: T1, LukAB toxoid variant (LukA E323A), …; experiment: BLI, FN3 protein on streptavidin pins, LukAB toxoid at 10 ug/mL
[8] = biological target: T4, LukE, recombinant protein used for HDX mapping (Staphylococcus aureus, UniProt Q2FXB0 24-306); experiment: HDX-MS
T4 construct: also called LukE (HDX)
T4 chain: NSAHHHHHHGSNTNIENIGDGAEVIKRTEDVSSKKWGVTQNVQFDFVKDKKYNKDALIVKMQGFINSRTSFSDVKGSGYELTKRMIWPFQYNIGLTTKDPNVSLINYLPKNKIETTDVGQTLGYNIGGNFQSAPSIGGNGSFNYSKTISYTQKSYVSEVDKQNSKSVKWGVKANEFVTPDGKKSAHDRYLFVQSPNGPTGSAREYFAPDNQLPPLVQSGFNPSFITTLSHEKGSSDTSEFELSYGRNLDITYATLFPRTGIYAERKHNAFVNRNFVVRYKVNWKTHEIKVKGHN

T2 sequence (P02768 25-609 limits assumed): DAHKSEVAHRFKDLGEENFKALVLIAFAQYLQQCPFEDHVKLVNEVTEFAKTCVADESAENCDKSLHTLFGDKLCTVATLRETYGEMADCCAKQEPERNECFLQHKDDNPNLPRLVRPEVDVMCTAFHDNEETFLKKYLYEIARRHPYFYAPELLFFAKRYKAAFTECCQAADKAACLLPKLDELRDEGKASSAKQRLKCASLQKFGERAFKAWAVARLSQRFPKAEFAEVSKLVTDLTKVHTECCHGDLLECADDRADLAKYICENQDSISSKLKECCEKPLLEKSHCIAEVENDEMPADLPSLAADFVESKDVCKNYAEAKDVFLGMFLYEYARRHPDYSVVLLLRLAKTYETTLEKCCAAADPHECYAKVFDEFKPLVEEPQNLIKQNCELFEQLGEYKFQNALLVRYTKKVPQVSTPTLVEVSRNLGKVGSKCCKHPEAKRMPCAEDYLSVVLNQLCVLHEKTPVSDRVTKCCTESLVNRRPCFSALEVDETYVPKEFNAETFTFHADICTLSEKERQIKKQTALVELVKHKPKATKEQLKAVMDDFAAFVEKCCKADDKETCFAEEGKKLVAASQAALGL

B1: Luk17 LukAB binding FN3 domain (designed binder)
chain: LPAPKNLVVSRVTEDSARLSWTAPDAAFDSFWITYEEKFYRGEAIVLTVPGSERSYDLTGLKPGTEYKVWIVGVKGGQGSWPLSAIFTT
B1: binds [1].

B2: Luk970 Hla binding FN3 domain, polyhistidine-tagged version (designed binder)
chain: LPAPKNLVVSRVTEDSARLSWNRGLIPFDSFLIQYQESEKVGEAIVLTVPGSERSYDLTGLKLGTEYTVSIYGVGTYYPWWPLSNPLSAIFTT
B2: no binding (tested: 1 µM) [2].

B3: Luk26 FN3 protein with carboxyl-terminal poly-histidine sequence (designed binder)
chain: MLPAPKNLVVSRVTEDSARLSWTAPDAAFDSFHIEYAEPWVWGEAIVLTVPGSERSYDLTGLKPGTEYVVFIGGVKGGHNSTPLSAIFTTGGHHHHHH
B3: binds [3].

B4: mAb 5133 PRASA A6 HC-L4-E-L4-AB (Table 1 Construct 11) (bispecific antibody)
heavy: EVQLVETGGGLVKPGGSLRLSCSASRFSFRDYYMTWIRQAPGKGPEWVSHISGSGSTIYYADSVRGRFTISRDNAKSSLYLQMDSLQADDTAVYYCARGGRATSYYWVHWGPGTLVTVSSASTKGPSVFPLAPSSKSTSGGTAALGCLVKDYFPEPVTVSWNSGALTSGVHTFPAVLQSSGLYSLSSVVTVPSSSLGTQTYICNVNHKPSNTKVDKKVEPKSCDKTHTCPPCPAPPVAGPDVFLFPPKPKDTLMISRTPEVTCVVVDVSHEDPEVKFNWYVDGVEVHNAKTKPREEQYNSTYRVVSVLTVLHQDWLNGKEYKCKVSNAALPAPIAKTISKAKGQPREPQVYTLPPSRDELTKNQVSLTCLVKGFYPSDIAVEWESNGQPENNYKTTPPVLDSDGSFFLYSKLTVDKSRWQQGNVFSCSVMHEALHNRFTQKSLSLSPGKGGGGSGGGGSGGGGSGGGGSMLPAPKNLVVSRVTEDSARLSWTAPDAAFDSFHIEYAEPWVWGEAIVLTVPGSERSYDLTGLKPGTEYVVFIGGVKGGHNSTPLSAIFTTGGGGSGGGGSGGGGSGGGGSMLPAPKNLVVSRVTEDSARLSWTAPDAAFDSFWITYEEKFYRGEAIVLTVPGSERSYDLTGLKPGTEYKVWIVGVKGGQGSWPLSAIFTT
light: EIVLTQSPATLSLSPGERATLSCRASQSVSGYLGWYQQKPGQAPRLLIYGASSRATGIPDRFSGSGSGTDFTLTISRLEPEDFAVYYCQQYGSSPLTFGGGTKLEIKRTVAAPSVFIFPPSDEQLKSGTASVVCLLNNFYPREAKVQWKVDNALQSGNSQESVTEQDSKDSTYSLSSTLTLSKADYEKHKVYACEVTHQGLSSPVTKSFNRGEC
notes: also called CR5133 PRASA A6 HC-L4-E-L4-AB; 4×4 variant
In the case of B4, the “fold higher binding affinity than Construct 6” value [4] is reported as about 6 fold and the Kd [5] is reported as 0.012 nM.

B5: mAb 5133 PRASA A6 HC-L4-AB (Table 1 Construct 6) (bispecific antibody)
heavy: EVQLVETGGGLVKPGGSLRLSCSASRFSFRDYYMTWIRQAPGKGPEWVSHISGSGSTIYYADSVRGRFTISRDNAKSSLYLQMDSLQADDTAVYYCARGGRATSYYWVHWGPGTLVTVSSASTKGPSVFPLAPSSKSTSGGTAALGCLVKDYFPEPVTVSWNSGALTSGVHTFPAVLQSSGLYSLSSVVTVPSSSLGTQTYICNVNHKPSNTKVDKKVEPKSCDKTHTCPPCPAPPVAGPDVFLFPPKPKDTLMISRTPEVTCVVVDVSHEDPEVKFNWYVDGVEVHNAKTKPREEQYNSTYRVVSVLTVLHQDWLNGKEYKCKVSNAALPAPIAKTISKAKGQPREPQVYTLPPSRDELTKNQVSLTCLVKGFYPSDIAVEWESNGQPENNYKTTPPVLDSDGSFFLYSKLTVDKSRWQQGNVFSCSVMHEALHNRFTQKSLSLSPGKGGGGSGGGGSGGGGSGGGGSMLPAPKNLVVSRVTEDSARLSWTAPDAAFDSFWITYEEKFYRGEAIVLTVPGSERSYDLTGLKPGTEYKVWIVGVKGGQGSWPLSAIFTT
light: EIVLTQSPATLSLSPGERATLSCRASQSVSGYLGWYQQKPGQAPRLLIYGASSRATGIPDRFSGSGSGTDFTLTISRLEPEDFAVYYCQQYGSSPLTFGGGTKLEIKRTVAAPSVFIFPPSDEQLKSGTASVVCLLNNFYPREAKVQWKVDNALQSGNSQESVTEQDSKDSTYSLSSTLTLSKADYEKHKVYACEVTHQGLSSPVTKSFNRGEC
notes: also called CR5133 PRASA A6 HC-L4-AB
Work on B5 yielded a Kd [5] of 0.07 nM.

B6: mAb 5133 PRASA A6 (CR5133 PRASA A6; Table 1 Construct 4) (antibody)
heavy: EVQLVETGGGLVKPGGSLRLSCSASRFSFRDYYMTWIRQAPGKGPEWVSHISGSGSTIYYADSVRGRFTISRDNAKSSLYLQMDSLQADDTAVYYCARGGRATSYYWVHWGPGTLVTVSSASTKGPSVFPLAPSSKSTSGGTAALGCLVKDYFPEPVTVSWNSGALTSGVHTFPAVLQSSGLYSLSSVVTVPSSSLGTQTYICNVNHKPSNTKVDKKVEPKSCDKTHTCPPCPAPPVAGPDVFLFPPKPKDTLMISRTPEVTCVVVDVSHEDPEVKFNWYVDGVEVHNAKTKPREEQYNSTYRVVSVLTVLHQDWLNGKEYKCKVSNAALPAPIAKTISKAKGQPREPQVYTLPPSRDELTKNQVSLTCLVKGFYPSDIAVEWESNGQPENNYKTTPPVLDSDGSFFLYSKLTVDKSRWQQGNVFSCSVMHEALHNRFTQKSLSLSPGK
light: EIVLTQSPATLSLSPGERATLSCRASQSVSGYLGWYQQKPGQAPRLLIYGASSRATGIPDRFSGSGSGTDFTLTISRLEPEDFAVYYCQQYGSSPLTFGGGTKLEIKRTVAAPSVFIFPPSDEQLKSGTASVVCLLNNFYPREAKVQWKVDNALQSGNSQESVTEQDSKDSTYSLSSTLTLSKADYEKHKVYACEVTHQGLSSPVTKSFNRGEC
notes: no FN3 domains
B6: no binding (tested: 100 nM) [6].

B7: mAb 5133 PRASA A6 HC-L4-E (Table 1 Construct 15) (bispecific antibody)
heavy: EVQLVETGGGLVKPGGSLRLSCSASRFSFRDYYMTWIRQAPGKGPEWVSHISGSGSTIYYADSVRGRFTISRDNAKSSLYLQMDSLQADDTAVYYCARGGRATSYYWVHWGPGTLVTVSSASTKGPSVFPLAPSSKSTSGGTAALGCLVKDYFPEPVTVSWNSGALTSGVHTFPAVLQSSGLYSLSSVVTVPSSSLGTQTYICNVNHKPSNTKVDKKVEPKSCDKTHTCPPCPAPPVAGPDVFLFPPKPKDTLMISRTPEVTCVVVDVSHEDPEVKFNWYVDGVEVHNAKTKPREEQYNSTYRVVSVLTVLHQDWLNGKEYKCKVSNAALPAPIAKTISKAKGQPREPQVYTLPPSRDELTKNQVSLTCLVKGFYPSDIAVEWESNGQPENNYKTTPPVLDSDGSFFLYSKLTVDKSRWQQGNVFSCSVMHEALHNRFTQKSLSLSPGKGGGGSGGGGSGGGGSGGGGSMLPAPKNLVVSRVTEDSARLSWTAPDAAFDSFHIEYAEPWVWGEAIVLTVPGSERSYDLTGLKPGTEYVVFIGGVKGGHNSTPLSAIFTT
light: EIVLTQSPATLSLSPGERATLSCRASQSVSGYLGWYQQKPGQAPRLLIYGASSRATGIPDRFSGSGSGTDFTLTISRLEPEDFAVYYCQQYGSSPLTFGGGTKLEIKRTVAAPSVFIFPPSDEQLKSGTASVVCLLNNFYPREAKVQWKVDNALQSGNSQESVTEQDSKDSTYSLSSTLTLSKADYEKHKVYACEVTHQGLSSPVTKSFNRGEC
notes: also called CR5133 PRASA A6 HC-L4-E
B7: no binding (tested: 100 nM) [6].

B8: Luk17-His-SA (designed binder)
chain: MLPAPKNLVVSRVTEDSARLSWTAPDAAFDSFWITYEEKFYRGEAIVLTVPGSERSYDLTGLKPGTEYKVWIVGVKGGQGSWPLSAIFTTGGHHHHHHGGGLNDIFEAQKIEWHE
B8: binds [7].

B9: Luk26 LukE binding FN3 domain (designed binder)
chain: LPAPKNLVVSRVTEDSARLSWTAPDAAFDSFHIEYAEPWVWGEAIVLTVPGSERSYDLTGLKPGTEYVVFIGGVKGGHNSTPLSAIFTT
B9: binds [8].
